From patent US20220119522A1

molecular target: mouse TREM2 truncated stalk peptide (aa 149-163) (mouse) (UniProt Q99NH8); assay: ELISA on biotinylated peptide captured by streptavidin; A450 normalised to isotype control

| Binder | fold over background (A450) |
| --- | --- |
| CL0020123 (antibody, V domains shown) VH: EVQLQQSGAELVRSGASVKLSCTASGFSIEDFYIHWVKQRPEQGLEWIGWIDPENGDSKYAPKFQGKATMTADTSSNTAYLHLSSLTSEDTAVYYCHADHGNYGSTMDYWGQGTSVTVSS VL: DIQMNQSPSSLSASLGDTVTITCHASQHINVWLSWYQQKPGDHPKLLIYKASNLHTGVPSRFSGSGSGTGFTLTISSLQPEDIATYYCQQGQTYPRTFGGGTKLEIK | 0.9 fold |
| CL0020139 (antibody, V domains shown) VH: EVQLQQSGPELVKPGASVKMSCKAPGYSFTSYLMNWVKQKPGQGLEWIGYINPYSAGSNYNEKFKDKATLTSDKSSSTAYMELRSLTSEDSAVYFCARSSYRYGFDYWGQGTTLTVSS VL: DIQMTQSSSSFSVSLGDRVTITCKASEDIYNRLAWYQQKPGNAPRLLISGATSLETGVPSRFSGSGSGKDYTLSITSLQTEDVATYSCQQYWSTPWTFGGGTKLEIK | 1.6 fold |
| CL0020210 (antibody, V domains shown) VH: QIQLVQSGPELRKPGETVKISCKASGYTFTTYGMSWVKQAPGKGLKWMGWINTYSGLPRHSDDFKGRFAFSLETSASTAYLQINNLKNEDTATYFCAREVYYGSRKTAWFAYWGQGTLVTVSA VL: DLVMSQSPSSLAVSVGERITMTCKSSQSLLYSNDQKNYLAWYQQIPGQSPKLLLYWASTRESGVPDRFTGSGSGTDFTLTISSVKAEDLAVYFCQQYYNYPPTFGAGTKLELK | 1.6 fold |
| CL0020161 (antibody, V domains shown) VH: EVQLVESGGGLVQPGRSMKLSCAALGFTFSNYYMAWVRQAPRKGLEWVASISTGGDNTYYRDSVKGRFTISRDNAKSTLYMQMDSLRSEDTATYYCVRSFIVGTTGYYFDYWGQGVMVTVSS VL: DIVLTQSPALAVSLGQRATISCKTNQNVDYYGNNYMHWYQQTPGQQPKLLIYFASNLASGIPARFSGRGSGTDFTLTIDPVEADDTATYYCQQSRNLPTFGGGTKLELK | 1.1 fold |
| CL0020215 (antibody, V domains shown) VH: QVQLQQPGAELVKPGASVKMSCKASGYTFTNYWIMWVKQRPGQGLEWIGDIYPSSGSTNYNEKFKNRATLTVDTSSNTAYMQLSSLTSEDSAVYFCSREGYGISAWGQGTTLTVSS VL: QIVLTQSPAIMSASPGEKVTITCSASSSVSYMHWFQQKPGTSPKLWIYSTSNLASGVPARFSGSGSGTSCSLTISRMEAEDAATYYCQQRSSFPLTFGAGTKLELK | 1.2 fold |
| CL0020111 (antibody, V domains shown) VH: QVQLQQPGADLVKPGASVKMSCKASGYTFTNYWITWVQQRPGQGLEWIGDIYPGSGNTNYNEKFRSKATLTVDTSSNTAYMQLSSLTSEDSAVYYCSREGYGISAWGQGTTLTVSS VL: QIVLTQSPAFMSASPGEKVTITCRASSSVSYMHWFQQKPGTSPKLWIFSTSNLASGVPARFSGSGSGTSHSLTISRMEAEDAATYYCQQRSGYPLTFGAGTKLELK | 1.5 fold |
| CL0020201 (antibody, V domains shown) VH: EVQLQQSGPVLVKPGASVRMSCKPSGYTFTDYYMNWVKQSHGKSLEWIGSINPYTGGSSYNQNFRGKATLTVDKSSSTAYMELNSLTSEDSAVYYCARGSYYSNLGFAYWGQGTLVTVSA VL: DVQLTQSPSFLTASPGETITINCRASKSISKYLAWYQEKPGKTNKLLISSGSTLQSGIPSRFSGSGSGTDFTLTISSLEPEDFAMYYCQQYSEYPFTFGSGTKLEIK | 1.8 fold |
| CL0020195 (antibody, V domains shown) VH: EVQLVESGGGLVQPGRSMMLSCSASGFTFSNYHMAWVRQAPTTGLEWVASITTGSGNTYYRHSVKGRFTISRDNAKSTLYLQMDSLRSEDTASYYCARRWYGGYEGYYFDYWGQGVMVTVSS VL: DIQMTQSPSLLSASVGDRVTLSCKAGQNVNNYLAWYQQKLGEAPKLLIYNANILQTGFPSRFSGTGSGTDFTLTISSLQPEDVATYFCQQYNSWTTFGGGTKLELK | 1.2 fold |
| CL0020164 (antibody, V domains shown) VH: EVKLLESGGGLVQPGGSLRLSCAASGFTFTDFYMSWIRQPPGKAPEWLGVIRNKANGFTTEYNTSVKGRFTISRDYTQNILHLQTNTLRAEDTAIYYCARLTYGFDYWGQGVMVTVSS VL: DIVMTQGALPNPVPSGESASITCQSSKSLLHSNGKTYLNWYLQRPGQSPQFLIYWMSTRASGVSDRFSGSGSGTDFTLKISSVEAEDVGVYYCQQFLELPFTFGSGTKLEIK | 1.5 fold |
| CL0020214 (antibody, V domains shown) VH: QVRLQQSGAELVRPGSSVKLSCKASGYAFSSYWMNWVKQRPGQGLEWIGQIYPGDGDTNYNGNFKGKATLTADNSSSTAYMQLSSLTSEDSAVYFCARRRNGDFGDYAMDYWGQGTSVTVSS VL: QIVLTQSPAIMSASPGEKVTISCSASSSVSYMCWYQQKPGSSPKPWIYRTSTLASGVPARFSGSGSGTSYSLTISSMEAADAATYYCQHYHSYPFTFGAGTKLELK | 1.3 fold |
| CL0020120 (antibody, V domains shown) VH: EVQLQQSGPELVRTGASVKISCRASSYSFTDNYIHWVKQTHGRSLEWIGYISGYTGATSYNQKFKGKATFTVDTSSSTAYMQFNSLTSEDSAVYYCARSTMIAPYGMDYWGQGTSVTVSS VL: DIVMTQSHKFMSTSVGDRVNITCKASQDVVTAVAWYQQKPGQSPKLLIYWASTRHTGVPDRFTGSGSGTDFTLTISNVQSEDLADYFCQQYSRYPLTFGAGTKLELK | 1.2 fold |
| CL0020127 (antibody, V domains shown) VH: EVQLQQSGPVLVKPGASVKMSCKASGYKFTDYYMNWVKQSHGKSLEWIGTINPYSGGISYNQKFKGKATLTVDKSSSTAYMELNSLTSEASAVYYCTRRNWDGRYAMDYWGQGTSVTVSS VL: DIVMTQSHKFMSTSVGDRVSITCKASQDVSTAVAWYQQKPGQSPKLLIYWASTRHTGVPDRFTGSGSGTDFTLTISNVQSEDLAEYFCQQYSSYPFTFGGGTKLEIK | 1.2 fold |
| CL0020206 (antibody, V domains shown) VH: EVQLQQSGPVLVKPGASVKMSCKASGYTFTDYYMNWVKQSHGKSLEWIGIINPYSGGISYNQKFKGKAILTVDKSSSTAYMELNSLTSEASAVYYCTRRNWDGRYAMDYWGQGTSVTVSS VL: DIVMTQSHKFMSTSVGDRVSITYKASQDVGSAVAWYQQKPGQSPKLLIYWTSTRHTGVPDRFTGSGSGTDFTLTISNVQSEDLADYFCQQYSSYPFTFGGGTKLEIK | 1.6 fold |
| CL0020162 (antibody, V domains shown) VH: QIQLVQSGPELKKPGESLKISCKASGYTFTDYAMQWVKQAPEKGLQYMGWINTQTGKPTYADDFKERFVFSLETSATTAYLQINNLKNEDMATYFCVRSYNNYENWFAYWGQGTLVTVSS VL: DIVMTQSPSSLAVSAGETVTINCKSSQSLLYSGNQKNYLAWYQQKPGQSPKVLIYWASTRQFGVPDRFIGSGSGTDFTLTISSVQAEDLAIYYCQQYYNSPITFGSGTKLEIK | 1.4 fold |
| CL0020113 (antibody, V domains shown) VH: QIQLVQSGPELKKPGESLKISCKASGYTFTDYAMQWVKQAPGKGLQYMGWINTQTGKPTYADDFKERFVFSLETSASTAYLKINNLKNDDMATYLCARSYGGEYNWIAYWGQGTLVTVSS VL: DIVMTQTPSSQAVSAGEKVTMNCKSSQSLLYNENKKNYLAWYQQKPGQSPKLLIYWASTRESGVPDRFIGSGSGTDFTLTISSVQAEDLAVYYCQQSYNFPPTFGGGTKLELK | 1.3 fold |
| CL0020109 (antibody, V domains shown) VH: EVQLQQSGPVLVKPGASLKMSCRASGYTFTDYYVHWVKQSHGKSLEWIGLINPYTGTTSYNQRFKGKATLTVDKSSSTAYMEVNSLTSEDSAVYYCARSRVYYGSSLFAFWGQGTLVTVSA VL: DIVMTQSPSSLSVSAGEKVTMSCKSSQSLLNSGNQKNYLAWYQQKPGQPPKLLIYGASTRESGVPDRFTGSGSGTDFTLTISSVQAEDLAVYYCQNDHSYPYTFGGGTKLEIK | 1.7 fold |
| CL0020205 (antibody, V domains shown) VH: EVQLQQSGPVLVKPGASVKMSCKASGYTFTDYYVHWVKQSHGKSLEWIGLINPYTGTTSYNQRFRVKATLTVDKSSSTAYMEVNSLTSEDSAVYYCARSRVYYGSSLFAFWGQGTLVTVSA VL: DIVMTQSPSSLSVSAGEKVTMSCKSSQSLLNSGNQKNYLAWYQQKPGQPPKLLIYGASTRESGVPDRFTGSGSGTDFTLTISSVQAEDLAVYYCQNDHSYPYTFGGGTKLEIK | 1.1 fold |
| CL0020313 (antibody, V domains shown) VH: QVQLKQSGPGLLQPSQSLSITCTVSGFSLTSYGVHWVRQSPGKGLEWLGVIWSGGITLYNAAFMSRLSITKDNSKSQVFFKMNSLQADDTAIYYCAKVGYGSSSDYWGQGTTLTVSS VL: DVLMTQSPLSLPVSLGDQASFSCRSSQSIVHSNGNTYLEWYLQKPGQSPKLLIYKVSNRFSGVPDRFSGSGSGTDFTLKISRVEAEDLGVYYCFQGSHVPFTFGSGTKLEIK | 1.1 fold |
| CL0020103 (antibody, V domains shown) VH: EVQLQQSGPELVKPGASVKISCKTSGYTFTEYTMHWVKESHGKSLEWIGGINPNKGGSSYNQKFKGKATLTVDKSSSTAYMDLRRLTSEDSAVYYCARGGYEYYALDYWGQGTSVTVSS VL: DIVMSQSPSSLTVSVGERVTMSCKSSQSLLYSRNQKNYLAWYQQKPGQSPKLLIYWASTRESGVPDRFTGSGSGTDFSLTISSVKAEDLAVYYCQQYYSYPPTFGGGTKLEIK | 1.8 fold |
| CL0020186 (antibody, V domains shown) VH: EVQLVESGGGLVQPGRSLKLSCPASGFTFSYYGMAWVRQAPTKGLEWVASISTGGGNTYYRDSVKGRFTISRDNAKNTLYLQMDSLRSEDTATYYCARGDIGTAYWFTYWGQGTLVTVSS VL: NIQLTQSPSLLSASVGDRVTLSCKGSQNINNYLAWYQQKLGEAPKLLIYKTNSLLTGIPSRFSGSGSGTDYTLTISSLHSEDLATYYCYQYNNGWTFGGGTKLELK | 1.3 fold |
| CL0020173 (antibody, V domains shown) VH: EVKLLESGGGLVQPGSSMRLSCAASGFTFTDFYMNWIRQPAGRAPEWLGFFRNIVDGYTTEYNPSVKGRFTISRDNTQNMLYLQMNTLRAEDTATYYCARSGYSSYIYGGTFAYWGQGTLVTVSS VL: ETVMTQSPTSMSTSIGERVTLNCKASQSVGIHVDWYQQTPGQSPKLLIYGASNRHTGVPDRFTGSGFGRDFTLTISNVEAEDLAVYYCLQYGSIPWTFGGGTKLELK | 1.2 fold |
